Test results as given in article PMC8667150.

Key:
[1] = Western blot of transfected AR42J cells; settings: glycan lost; control: wild type
[2] = immunofluorescence, anti-myc and anti-calnexin, AR42J cells; settings: glycan lost; control: wild type

B1: somatostatin receptor type 2 (SSTR2): N9Q (protein)
parent chain: MELTSEQFNGSQVWIPSPFDLNGSLGPSNGSNQTEPYYDMTSNAVLTFIYFVVCVVGLCGNTLVIYVILRYAKMKTITNIYILNLAIADELFMLGLPFLAMQVALVHWPFGKAICRVVMTVDGINQFTSIFCLTVMSIDRYLAVVHPIKSAKWRRPRTAKMINVAVWGVSLLVILPIMIYAGLRSNQWGRSSCTINWPGESGAWYTGFIIYAFILGFLVPLTIICLCYLFIIIKVKSSGIRVGSSKRKKSEKKVTRMVSIVVAVFIFCWLPFYIFNVSSVSVAISPTPALKGMFDFVVILTYANSCANPILYAFLSDNFKKSFQNVLCLVKVSGAEDGERSDSKQDKSRLNETTETQRTLLNGDLQTSI
In the case of B1, the expression_or_secretion [1] is reported as “decreases” and the localisation_or_trafficking [2] is reported as “changes”.
